Our source for the Kd and K0.5 values is article doi:10.1101/2025.09.08.674988.

The Kd is the concentration at which binding is half-saturated.

The target of data set [1] is FlAsH-labeled NS5B(Δ21)-FlAsH-His (Hepatitis C virus genotype 2a). Briefly: fluorescence polarisation.
For data set [2] the target is unchanged. Briefly: fluorescence polarisation. The source holds these as a separate data set. For orientation: Polarisation of emitted light reports the rotation of a fluorescent probe.
Data set [3] shares this target. Briefly: fluorescence polarisation. The source holds these as a separate data set.
The target of data set [4] is NS5B(Δ21)-FlAsH-His (Hepatitis C virus genotype 2a). Put plainly: dynamic light scattering.
A further data set in a line: dynamic light scattering. The settings on record: other: dynamic light scattering.
In data set [5] the target is FlAsH-labeled NS5B(Δ21)-FlAsH-His (Hepatitis C virus genotype 2a). Put plainly: FRAP on a supported lipid bilayer.

Regarding NS5B(Δ21)-FlAsH-His (enzyme), the Kd stood at 1000 nM in data set [1], 560 nM in data set [2], 1100 nM in data set [3] and 750 nM in data set [4].
In the case of NS5B(Δ21)-FlAsH-His, the K0.5 result in the data set “dynamic light scattering” is listed as “K0.5 ∼ 1.5 µM”.
On to “FlAsH-labeled NS5B(Δ21)-FlAsH-His (enzyme)”, for which the Kd in data set [5] was less than 10 nM.
